Values belong to the sequence of their own block, whether it stands above or below them.
Key:
HLA-B*44:03 = assay: IEDB peptide-MHC binding, purified MHC/competitive/radioactivity; filed as Kd, often an IC50 or EC50 that approximates it; ≥ and ≤ were set here for values at or beyond the usual limits of such assays
HLA-A*32:01 = assay: as above
HLA-B*15:01 [1] = assay: as above
HLA-A*01:01 [2] = assay: IEDB peptide-MHC binding, purified MHC/direct/fluorescence; filed as Kd, often an IC50 or EC50 that approximates it; ≥ and ≤ were set here for values at or beyond the usual limits of such assays; conditions: source organism: Pseudomonas putida
HLA-A*02:01 = assay: as above; conditions: source organism: Pseudomonas putida
HLA-A*03:01 [3] = assay: as above; conditions: source organism: Pseudomonas putida
HLA-A*11:01 [4] = assay: as above; conditions: source organism: Pseudomonas putida
HLA-A*26:01 [5] = assay: as above
HLA-A*31:01 [6] = assay: as above; conditions: source organism: Pseudomonas putida
HLA-A*69:01 = assay: as above; conditions: source organism: Pseudomonas putida
HLA-B*07:02 = assay: as above; conditions: source organism: Pseudomonas putida
HLA-B*08:01 [7] = assay: as above; conditions: source organism: Pseudomonas putida
HLA-B*15:01 [8] = assay: as above; conditions: source organism: Pseudomonas putida
HLA-B*27:05 = assay: as above; conditions: source organism: Pseudomonas putida
HLA-B*40:01 = assay: as above; conditions: source organism: Pseudomonas putida
HLA-B*58:01 = assay: as above; conditions: source organism: Pseudomonas putida
HLA-A*68:02 = assay: IEDB peptide-MHC binding, purified MHC/competitive/radioactivity; filed as Kd, often an IC50 or EC50 that approximates it; ≥ and ≤ were set here for values at or beyond the usual limits of such assays
HLA-B*08:01 [9] = assay: as above
HLA-A*03:01 [10] = assay: as above; conditions: source organism: Vaccinia virus WR
HLA-A*11:01 [11] = assay: as above; conditions: source organism: Vaccinia virus WR
HLA-A*31:01 [12] = assay: as above; conditions: source organism: Vaccinia virus WR
HLA-A*33:01 = assay: as above; conditions: source organism: Vaccinia virus WR
HLA-A*68:01 = assay: as above; conditions: source organism: Vaccinia virus WR
HLA-A*01:01 [13] = assay: as above
HLA-A*30:02 = assay: as above
HLA-B*35:01 = assay: as above; conditions: source organism: Dengue virus 4 Philippines/H241/1956
HLA-A*24:03 = assay: IEDB peptide-MHC binding, purified MHC/direct/fluorescence; filed as Kd, often an IC50 or EC50 that approximates it; ≥ and ≤ were set here for values at or beyond the usual limits of such assays; conditions: source organism: Mycobacterium tuberculosis
HLA-A*26:01 [14] = assay: IEDB peptide-MHC binding, purified MHC/competitive/radioactivity; filed as Kd, often an IC50 or EC50 that approximates it; ≥ and ≤ were set here for values at or beyond the usual limits of such assays
[15] = source organism: Dengue virus 3 Martinique/1243/1999
[16] = source organism: Dengue virus 1 Brazil/97-11/1997
[17] = source organism: Dengue virus 4 Philippines/H241/1956
[18] = source organism: Vaccinia virus WR
[19] = source organism: Dengue virus 4 Dominica/814669/1981
[20] = source organism: Dengue virus 3 Singapore/8120/1995

Sequence: AEWLWRTLGR
Kd (HLA-B*44:03; [15]): 314 nM

Sequence: AMEELPDTI
Kd (HLA-A*32:01; [16]): ≥ 21400 nM

Sequence: ATAGLHLGF
Kd (HLA-A*32:01; source organism: Vaccinia virus Copenhagen): 1.69 nM

Sequence: AVHQVFGSVY
Kd (HLA-B*15:01 [1]; [17]): 1.1 nM

Kd (HLA-A*01:01 [2]): ≥ 20000 nM
Kd (HLA-A*02:01): ≥ 20000 nM
Kd (HLA-A*03:01 [3]): ≥ 20000 nM
Kd (HLA-A*11:01 [4]): ≥ 20000 nM
Kd (HLA-A*26:01 [5]; source organism: Pseudomonas putida): 4520 nM
Kd (HLA-A*31:01 [6]): ≥ 20000 nM
Kd (HLA-A*69:01): ≥ 20000 nM
Kd (HLA-B*07:02): ≥ 20000 nM
Kd (HLA-B*08:01 [7]): ≥ 20000 nM
Kd (HLA-B*15:01 [8]): ≥ 20000 nM
Kd (HLA-B*27:05): ≥ 20000 nM
Kd (HLA-B*40:01): ≥ 20000 nM
Kd (HLA-B*58:01): ≥ 20000 nM
Sequence: DLSNSMRDF

Sequence: DTMTYKCPRI
Kd (HLA-A*68:02; [16]): 64 nM

Sequence: EARKTFVDL
Kd (HLA-B*08:01 [9]; source organism: Dengue virus 2 Jamaica/1409/1983): 570 nM

Sequence: EEISTSLSF
Kd (HLA-B*15:01 [1]; [18]): 2.05 nM

Sequence: EETNMITLLV
Kd (HLA-B*44:03; [17]): 614 nM

Sequence: ELCGAFLFY
Kd (HLA-A*03:01 [10]): 156 nM
Kd (HLA-A*11:01 [11]): 196 nM
Kd (HLA-A*31:01 [12]): 1030 nM
Kd (HLA-A*33:01): 13600 nM
Kd (HLA-A*68:01): 277 nM
Kd (HLA-B*15:01 [1]; [18]): 7.47 nM

Sequence: ELKLFNVTL
Kd (HLA-B*08:01 [9]; [18]): 4.68 nM

Sequence: ELNNTQCHI
Kd (HLA-B*15:01 [1]; [18]): 1240 nM

Sequence: ETIDTIIDQ
Kd (HLA-A*26:01 [5]; source organism: Mammarenavirus lassaense): 954 nM

Sequence: ETPTWNRKEL
Kd (HLA-A*68:02; [15]): 872 nM

Sequence: FIWFIFHFV
Kd (HLA-B*08:01 [9]; source organism: Vaccinia virus): 3160 nM

Sequence: FSFMYIESI
Kd (HLA-B*15:01 [1]; [18]): 191 nM

Sequence: FSQHNYRQGY
Kd (HLA-A*01:01 [13]; [17]): 210 nM
Kd (HLA-A*30:02; [17]): 1250 nM
Kd (HLA-B*15:01 [1]; [17]): 135 nM
Kd (HLA-B*35:01): ≥ 45400 nM

Sequence: FVKRKKLDI
Kd (HLA-B*08:01 [9]; [18]): 2.98 nM

Sequence: GASRRSWPL
Kd (HLA-B*08:01 [9]; [19]): 14 nM

Sequence: GGPISQHNY
Kd (HLA-A*30:02; [16]): 473 nM

Sequence: GKKHMIAGVL
Kd (HLA-B*08:01 [9]; [20]): 11900 nM

Sequence: GWALGYLYF
Kd (HLA-A*24:03): 24.5 nM

Sequence: HTTERGGKAY
Kd (HLA-A*01:01 [13]; [17]): 4310 nM
Kd (HLA-A*26:01 [14]; [17]): 1320 nM
Kd (HLA-B*15:01 [1]; [17]): 50.5 nM

Sequence: HTTERGGRAY
Kd (HLA-A*01:01 [13]; [19]): 145 nM
Kd (HLA-A*26:01 [14]; [19]): 345 nM
Kd (HLA-B*15:01 [1]; [19]): 220 nM

Sequence: IDKKGKVVGL
Kd (HLA-B*08:01 [9]; source organism: Dengue virus 2 16681-PDK53): 13700 nM

Sequence: IISSTPFAEY
Kd (HLA-A*01:01 [13]; [17]): 3440 nM
Kd (HLA-A*30:02; [17]): 36.9 nM

Sequence: ILLKMVTHF
Kd (HLA-B*15:01 [1]; [17]): 1.72 nM

Sequence: ILVIFTVAI
Kd (HLA-A*32:01; [18]): 15.3 nM

Sequence: ITNELNYVL
Kd (HLA-A*32:01; [17]): 74.6 nM

Sequence: ITYCLVTHM
Kd (HLA-B*15:01 [1]; [18]): 25.3 nM

Sequence: KETACLGKAY
Kd (HLA-B*44:03; [20]): 123 nM

Sequence: KIDNYVVKF
Kd (HLA-A*32:01; [18]): 19.4 nM

From the Immune Epitope Database (IEDB)
